Source: the Human Domainome abundance scans (Beltran et al. 2025)
± gives the uncertainty stated by the source.

B1: Syntaxin-binding protein 4, residues 493 to 538; numbered along this chain, Q6ZWJ1 (parent)
chain: LDMDCLPYGWEEAYTADGIKYFINHVTQTTSWIHPVMSVLNLSRSE

Variants of: B1
Assay: abundance fitness (aPCA) (normalised: wild type 0, dead -1); higher = more abundant; growth selection in yeast, the domain comes from the species named
Details: Homo sapiens
With P7Q the abundance fitness was -0.903 ± 0.14. With P7I the abundance fitness was -0.984 ± 0.17. P7N gave an abundance fitness of -0.714 ± 0.16. P7L showed an abundance fitness of -0.711 ± 0.095. I19K gave an abundance fitness of 0.791 ± 0.12. I19H showed an abundance fitness of 0.293 ± 0.11. Work on I19C yielded an abundance fitness of 0.348 ± 0.1. For I19T, the abundance fitness was 0.234 ± 0.094. Work on I19D yielded an abundance fitness of 0.771 ± 0.1. Y14T gave an abundance fitness of -0.522 ± 0.1. For Y14R, the abundance fitness was -0.389 ± 0.075. Y14G showed an abundance fitness of -0.773 ± 0.087. Y14P gave an abundance fitness of -1 ± 0.12. In the case of Y14M, the abundance fitness is reported as -0.614 ± 0.1. With Y14W the abundance fitness was -0.271 ± 0.086. R44L showed an abundance fitness of -0.512 ± 0.11. R44Q showed an abundance fitness of -0.063 ± 0.13. With S43P the abundance fitness was -0.064 ± 0.12. Variant S43Q has an abundance fitness of -0.732 ± 0.26. S43H showed an abundance fitness of -0.021 ± 0.25. Work on S43A yielded an abundance fitness of -0.526 ± 0.11. Work on S43W yielded an abundance fitness of -1 ± 0.16. Variant S43T has an abundance fitness of -0.183 ± 0.14. With G18H the abundance fitness was -0.862 ± 0.22. With G18T the abundance fitness was -0.949 ± 0.13. G18C gave an abundance fitness of -0.902 ± 0.12. With M3L the abundance fitness was -0.036 ± 0.08. M3N gave an abundance fitness of 0.354 ± 0.1. Variant M3Q has an abundance fitness of 0.065 ± 0.11. Variant D4K has an abundance fitness of -0.543 ± 0.11. D4E gave an abundance fitness of -0.16 ± 0.1. In the case of V36L, the abundance fitness is reported as -0.035 ± 0.082. For V36F, the abundance fitness was -0.444 ± 0.12. Work on V36C yielded an abundance fitness of 0.585 ± 0.11. In the case of V36K, the abundance fitness is reported as 0.746 ± 0.11. Work on V36A yielded an abundance fitness of 0.59 ± 0.083. With F22S the abundance fitness was -0.832 ± 0.11. For F22M, the abundance fitness was -0.44 ± 0.14. With N24L the abundance fitness was -0.932 ± 0.16. In the case of N24H, the abundance fitness is reported as -0.282 ± 0.14. In the case of N24K, the abundance fitness is reported as -1.12 ± 0.28. E11V gave an abundance fitness of -0.531 ± 0.083. Work on E11D yielded an abundance fitness of -0.528 ± 0.11. Work on E11H yielded an abundance fitness of -0.657 ± 0.15. Variant E11M has an abundance fitness of -0.793 ± 0.11. For E11R, the abundance fitness was -0.537 ± 0.077. Variant T29K has an abundance fitness of -0.759 ± 0.46. For T29A, the abundance fitness was -0.486 ± 0.15. With T29R the abundance fitness was -0.594 ± 0.14. P35K showed an abundance fitness of -0.533 ± 0.15. Variant P35C has an abundance fitness of -1.06 ± 0.21. Variant P35H has an abundance fitness of -0.83 ± 0.15. Work on P35A yielded an abundance fitness of -1.01 ± 0.11. L42R showed an abundance fitness of 0.108 ± 0.085. For L42M, the abundance fitness was -0.046 ± 0.11. L42S gave an abundance fitness of 0.162 ± 0.095. In the case of S31V, the abundance fitness is reported as -0.373 ± 0.097. For S31I, the abundance fitness was -0.633 ± 0.16. For S31A, the abundance fitness was -0.799 ± 0.12. S31H gave an abundance fitness of -0.94 ± 0.18. For S31L, the abundance fitness was -0.788 ± 0.11. With S31N the abundance fitness was -0.953 ± 0.19. Work on S45L yielded an abundance fitness of -0.509 ± 0.11. With S45H the abundance fitness was -0.438 ± 0.16. Work on S45T yielded an abundance fitness of -0.089 ± 0.11. With N41H the abundance fitness was -0.681 ± 0.2. In the case of N41V, the abundance fitness is reported as -0.694 ± 0.098. In the case of N41F, the abundance fitness is reported as -1.02 ± 0.2. N41A showed an abundance fitness of -0.313 ± 0.087. With C5G the abundance fitness was -0.04 ± 0.076. C5M showed an abundance fitness of -0.173 ± 0.11. Work on C5I yielded an abundance fitness of -0.113 ± 0.15. C5V showed an abundance fitness of -0.155 ± 0.085. In the case of C5K, the abundance fitness is reported as 0.076 ± 0.098. T15D showed an abundance fitness of -0.509 ± 0.13. For T15A, the abundance fitness was -0.801 ± 0.1. S38K showed an abundance fitness of -0.479 ± 0.11. In the case of S38V, the abundance fitness is reported as -0.502 ± 0.094. S38M gave an abundance fitness of -0.663 ± 0.13. In the case of S38C, the abundance fitness is reported as -0.567 ± 0.14. In the case of S38D, the abundance fitness is reported as -0.004 ± 0.13. In the case of S38P, the abundance fitness is reported as -0.141 ± 0.097. H25W gave an abundance fitness of -0.916 ± 0.14. For H25A, the abundance fitness was -0.927 ± 0.12. For H25Y, the abundance fitness was -0.941 ± 0.21. Variant H25N has an abundance fitness of 0.599 ± 0.34. For V39S, the abundance fitness was -0.079 ± 0.093. Variant V39K has an abundance fitness of -0.205 ± 0.12. V39R showed an abundance fitness of -0.083 ± 0.086. With V39F the abundance fitness was 0.072 ± 0.15. Work on V39T yielded an abundance fitness of 0.04 ± 0.11. V39D gave an abundance fitness of 0.466 ± 0.11. E46N gave an abundance fitness of -0.139 ± 0.31. Work on E46Q yielded an abundance fitness of 0.008 ± 0.5. Work on Y21M yielded an abundance fitness of -1.03 ± 0.17. In the case of Y21T, the abundance fitness is reported as -0.93 ± 0.14. Y21Q gave an abundance fitness of -0.544 ± 0.13. With M37G the abundance fitness was 0.059 ± 0.08. For M37E, the abundance fitness was 0.327 ± 0.095. Work on M37V yielded an abundance fitness of -0.226 ± 0.1. Variant M37R has an abundance fitness of 0.558 ± 0.079. Work on W10N yielded an abundance fitness of -0.615 ± 0.15. Work on W10R yielded an abundance fitness of -0.863 ± 0.083. For W10T, the abundance fitness was -0.869 ± 0.11. In the case of W10Y, the abundance fitness is reported as -0.774 ± 0.15. W10M showed an abundance fitness of -0.918 ± 0.13. D17F gave an abundance fitness of -0.942 ± 0.14. With D17W the abundance fitness was -0.835 ± 0.1. Variant D17N has an abundance fitness of -0.548 ± 0.12. D17C showed an abundance fitness of -0.873 ± 0.12. Work on D17L yielded an abundance fitness of -0.823 ± 0.093. In the case of Q28W, the abundance fitness is reported as -0.695 ± 0.13. With Q28V the abundance fitness was -0.789 ± 0.098. Q28N showed an abundance fitness of 0.159 ± 0.12. For Q28M, the abundance fitness was 0.031 ± 0.14. With I33H the abundance fitness was -0.084 ± 0.14. In the case of I33E, the abundance fitness is reported as 0.511 ± 0.12. I33N showed an abundance fitness of -0.243 ± 0.19. With I33Q the abundance fitness was 0.064 ± 0.14. For A13Q, the abundance fitness was -0.677 ± 0.13. Variant A13L has an abundance fitness of -0.742 ± 0.091. In the case of A13W, the abundance fitness is reported as -0.766 ± 0.11. Work on I23D yielded an abundance fitness of -0.731 ± 0.28. I23A showed an abundance fitness of -0.781 ± 0.12. With I23K the abundance fitness was -0.282 ± 0.14. I23R gave an abundance fitness of -0.241 ± 0.081. Variant I23P has an abundance fitness of -0.4 ± 0.11. Variant I23Q has an abundance fitness of -0.829 ± 0.18. K20G gave an abundance fitness of -0.857 ± 0.087. With K20Q the abundance fitness was -0.897 ± 0.13. Work on K20F yielded an abundance fitness of -0.919 ± 0.17. A16C showed an abundance fitness of -0.555 ± 0.096. Work on Y8G yielded an abundance fitness of -0.028 ± 0.073. Work on Y8R yielded an abundance fitness of -0.34 ± 0.076. In the case of Y8W, the abundance fitness is reported as -0.371 ± 0.091. T27S gave an abundance fitness of -0.348 ± 0.1. Variant T27P has an abundance fitness of -0.772 ± 0.14. In the case of E12L, the abundance fitness is reported as -0.804 ± 0.099. Variant E12I has an abundance fitness of -0.273 ± 0.13. E12N showed an abundance fitness of -0.765 ± 0.19. For E12F, the abundance fitness was -0.801 ± 0.15. Variant D2I has an abundance fitness of -0.698 ± 0.16. D2L showed an abundance fitness of -0.424 ± 0.093. In the case of D2V, the abundance fitness is reported as -0.576 ± 0.086. With D2F the abundance fitness was -0.849 ± 0.13. Variant L6Q has an abundance fitness of -0.817 ± 0.14. L6M showed an abundance fitness of -0.692 ± 0.12. L6P showed an abundance fitness of -0.608 ± 0.11. L6F showed an abundance fitness of -0.604 ± 0.17. Work on L6D yielded an abundance fitness of -0.405 ± 0.15. In the case of L40Y, the abundance fitness is reported as -0.584 ± 0.16. W32G showed an abundance fitness of -0.664 ± 0.089. Work on W32N yielded an abundance fitness of -0.342 ± 0.25. Work on W32A yielded an abundance fitness of -0.787 ± 0.11. W32L gave an abundance fitness of -0.49 ± 0.097. For W32C, the abundance fitness was -0.346 ± 0.12. Work on W32H yielded an abundance fitness of -1.09 ± 0.29. In the case of H34P, the abundance fitness is reported as -0.181 ± 0.11. Work on H34S yielded an abundance fitness of -0.443 ± 0.097. H34I showed an abundance fitness of -0.724 ± 0.19. For H34R, the abundance fitness was -0.488 ± 0.082. Work on G9R yielded an abundance fitness of -0.846 ± 0.088. G9W gave an abundance fitness of -0.699 ± 0.1. With G9N the abundance fitness was -0.849 ± 0.14. T30F showed an abundance fitness of -0.998 ± 0.26. T30D gave an abundance fitness of -0.859 ± 0.14. Variant T30N has an abundance fitness of -0.727 ± 0.25.
